The target of assay [1] is T1, gH/gL/UL128/UL130/UL131A pentamer complex expressed from MVA-PC in BHK-21 cells (human cytomegalovirus, UniProt P12824 24-743; P16832 31-278; P16837 28-171; P16772 1-214; F5HET4 19-129).
T1 construct: whole, on cells
In words: FC competition, MVA-PC BHK-21; unlabelled row Ab; competitor: biotinylated AP86. Also: test concentration or dose not given here.

The target of assay [2] is T2, gH of HCMV strain Towne (human cytomegalovirus strain Towne, UniProt P17176 30-742).
T2 sequence: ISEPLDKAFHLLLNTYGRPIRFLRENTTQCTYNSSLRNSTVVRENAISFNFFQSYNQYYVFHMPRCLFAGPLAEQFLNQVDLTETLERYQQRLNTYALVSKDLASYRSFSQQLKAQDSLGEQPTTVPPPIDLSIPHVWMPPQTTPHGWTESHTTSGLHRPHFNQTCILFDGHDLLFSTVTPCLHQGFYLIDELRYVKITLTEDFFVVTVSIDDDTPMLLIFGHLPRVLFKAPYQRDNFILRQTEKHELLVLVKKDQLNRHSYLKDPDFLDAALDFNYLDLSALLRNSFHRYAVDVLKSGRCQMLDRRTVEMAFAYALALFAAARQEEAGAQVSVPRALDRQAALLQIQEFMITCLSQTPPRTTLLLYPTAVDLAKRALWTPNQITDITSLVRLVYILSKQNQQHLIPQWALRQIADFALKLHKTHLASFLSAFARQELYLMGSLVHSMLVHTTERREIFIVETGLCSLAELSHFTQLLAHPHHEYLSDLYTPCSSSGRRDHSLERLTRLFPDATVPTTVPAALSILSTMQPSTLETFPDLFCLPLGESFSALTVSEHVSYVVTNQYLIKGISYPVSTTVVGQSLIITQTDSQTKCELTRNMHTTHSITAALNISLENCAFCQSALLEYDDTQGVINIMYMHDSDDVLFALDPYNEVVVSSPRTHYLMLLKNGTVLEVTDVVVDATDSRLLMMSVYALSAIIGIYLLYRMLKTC
Kind of assay: immunoblot, lysates of HCMV-infected MRC-5.

The target of assay [3] is T1, gH/gL/UL128/UL130/UL131A pentamer …. Kind of assay: FC competition, MVA-PC BHK-21; unlabelled row Ab; competitor: biotinylated 1B2.
The target is the same in assay [4]. Kind of assay: FC competition, MVA-PC BHK-21; unlabelled row Ab; competitor: biotinylated 13B5.

B1: 18F10 (antibody, V domains shown)
VH: QVTLKESGPGILQPSQTLSLTCSFSGFSLSTYGIGIGWIRQPSGKGLEWLAHIWWNDNKNYNTALKSRLTISKDPSNNQVFLKIASVDTADTATYFCARTGYFDVWGAGTTVTVSS
VL: DVVLTQTPLSLPVSLGDQVSISCSSSQSLVHSNGNTYIHWYLQKPGQSPKLLIYTVSNRFSGVPDRFSGSGSGTDFTLKISRVEAEDLGLYFCSQSTHVPYTFGGGTKLEIK
notes: also called NAb 18F10
Take B1: the “Binding Inhibition (%)” value in assay [1] amounted to 100%; in assay [3], 0%; in assay [4] it was 0%. The binding result in assay [2] is on record as “no binding (tested: 10 µg/ml)”.

(Values after US20180230200A1 (CITY OF HOPE, published 2018).)
